Test results as given in publication PMC10112965, “Characterization of the nuclear import of the human CHD4–NuRD complex” (Journal of Cell Science, 2023).

B1: CHD4-C-Flag Δ aa 217–360 (enzyme, human, UniProt Q14839 1-1912, looked up)
chain: MASGLGSPSPCSAGSEEEDMDALLNNSLPPPHPENEEDPEEDLSETETPKLKKKKKPKKPRDPKIPKSKRQKKERMLLCRQLGDSSGEGPEFVEEEEEVALRSDSEGSDYTPGKKKKKKLGPKKEKKSKSKRKEEEEEEDDDDDSKEPKSSAQLLEDWGMEDIDHVFSEEDYRTLTNYKAFSQFVRPLIAAKNPKIAVSKMMMVLGAKWREFSTNNAVDGYETDHQDYCEVCQQGGEIILCDTCPRAYHMVCLDPDMEKAPEGKWSCPHCEKEGIQWEAKEDNSEGEEILEEVGGDLEEEDDHHMEFCRVCKDGGELLCCDTCPSSYHIHCLNPPLPEIPNGEWLCPRCTCPALKGKVQKILIWKWGQPPSPTPVPRPPDADPNTPSPKPLEGRPERQFFVKWQGMSYWHCSWVSELQLELHCQVMFRNYQRKNDMDEPPSGDFGGDEEKSRKRKNKDPKFAEMEERFYRYGIKPEWMMIHRILNHSVDKKGHVHYLIKWRDLPYDQASWESEDVEIQDYDLFKQSYWNHRELMRGEEGRPGKKLKKVKLRKLERPPETPTVDPTVKYERQPEYLDATGGTLHPYQMEGLNWLRFSWAQGTDTILADEMGLGKTVQTAVFLYSLYKEGHSKGPFLVSAPLSTIINWEREFEMWAPDMYVVTYVGDKDSRAIIRENEFSFEDNAIRGGKKASRMKKEASVKFHVLLTSYELITIDMAILGSIDWACLIVDEAHRLKNNQSKFFRVLNGYSLQHKLLLTGTPLQNNLEELFHLLNFLTPERFHNLEGFLEEFADIAKEDQIKKLHDMLGPHMLRRLKADVFKNMPSKTELIVRVELSPMQKKYYKYILTRNFEALNARGGGNQVSLLNVVMDLKKCCNHPYLFPVAAMEAPKMPNGMYDGSALIRASGKLLLLQKMLKNLKEGGHRVLIFSQMTKMLDLLEDFLEHEGYKYERIDGGITGNMRQEAIDRFNAPGAQQFCFLLSTRAGGLGINLATADTVIIYDSDWNPHNDIQAFSRAHRIGQNKKVMIYRFVTRASVEERITQVAKKKMMLTHLVVRPGLGSKTGSMSKQELDDILKFGTEELFKDEATDGGGDNKEGEDSSVIHYDDKAIERLLDRNQDETEDTELQGMNEYLSSFKVAQYVVREEEMGEEEEVEREIIKQEESVDPDYWEKLLRHHYEQQQEDLARNLGKGKRIRKQVNYNDGSQEDRDWQDDQSDNQSDYSVASEEGDEDFDERSEAPRRPSRKGLRNDKDKPLPPLLARVGGNIEVLGFNARQRKAFLNAIMRYGMPPQDAFTTQWLVRDLRGKSEKEFKAYVSLFMRHLCEPGADGAETFADGVPREGLSRQHVLTRIGVMSLIRKKVQEFEHVNGRWSMPELAEVEENKKMSQPGSPSPKTPTPSTPGDTQPNTPAPVPPAEDGIKIEENSLKEEESIEGEKEVKSTAPETAIECTQAPAPASEDEKVVVEPPEGEEKVEKAEVKERTEEPMETEPKGAADVEKVEEKSAIDLTPIVVEDKEEKKEEEEKKEVMLQNGETPKDLNDEKQKKNIKQRFMFNIADGGFTELHSLWQNEERAATVTKKTYEIWHRRHDYWLLAGIINHGYARWQDIQNDPRYAILNEPFKGEMNRGNFLEIKNKFLARRFKLLEQALVIEEQLRRAAYLNMSEDPSHPSMALNTRFAEVECLAESHQHLSKESMAGNKPANAVLHKVLKQLEELLSDMKADVTRLPATIARIPPVAVRLQMSERNILSRLANRAPEPTPQQVAQQQ
notes: not shown: Flag, C-terminal, kept
B2: CHD4-C-Flag, C-terminal Flag-tagged recombinant human CHD4 wild-type (enzyme, UniProt Q14839 1-1912, looked up)
chain: MASGLGSPSPCSAGSEEEDMDALLNNSLPPPHPENEEDPEEDLSETETPKLKKKKKPKKPRDPKIPKSKRQKKERMLLCRQLGDSSGEGPEFVEEEEEVALRSDSEGSDYTPGKKKKKKLGPKKEKKSKSKRKEEEEEEDDDDDSKEPKSSAQLLEDWGMEDIDHVFSEEDYRTLTNYKAFSQFVRPLIAAKNPKIAVSKMMMVLGAKWREFSTNNPFKGSSGASVAAAAAAAVAVVESMVTATEVAPPPPPVEVPIRKAKTKEGKGPNARRKPKGSPRVPDAKKPKPKKVAPLKIKLGGFGSKRKRSSSEDDDLDVESDFDDASINSYSVSDGSTSRSSRSRKKLRTTKKKKKGEEEVTAVDGYETDHQDYCEVCQQGGEIILCDTCPRAYHMVCLDPDMEKAPEGKWSCPHCEKEGIQWEAKEDNSEGEEILEEVGGDLEEEDDHHMEFCRVCKDGGELLCCDTCPSSYHIHCLNPPLPEIPNGEWLCPRCTCPALKGKVQKILIWKWGQPPSPTPVPRPPDADPNTPSPKPLEGRPERQFFVKWQGMSYWHCSWVSELQLELHCQVMFRNYQRKNDMDEPPSGDFGGDEEKSRKRKNKDPKFAEMEERFYRYGIKPEWMMIHRILNHSVDKKGHVHYLIKWRDLPYDQASWESEDVEIQDYDLFKQSYWNHRELMRGEEGRPGKKLKKVKLRKLERPPETPTVDPTVKYERQPEYLDATGGTLHPYQMEGLNWLRFSWAQGTDTILADEMGLGKTVQTAVFLYSLYKEGHSKGPFLVSAPLSTIINWEREFEMWAPDMYVVTYVGDKDSRAIIRENEFSFEDNAIRGGKKASRMKKEASVKFHVLLTSYELITIDMAILGSIDWACLIVDEAHRLKNNQSKFFRVLNGYSLQHKLLLTGTPLQNNLEELFHLLNFLTPERFHNLEGFLEEFADIAKEDQIKKLHDMLGPHMLRRLKADVFKNMPSKTELIVRVELSPMQKKYYKYILTRNFEALNARGGGNQVSLLNVVMDLKKCCNHPYLFPVAAMEAPKMPNGMYDGSALIRASGKLLLLQKMLKNLKEGGHRVLIFSQMTKMLDLLEDFLEHEGYKYERIDGGITGNMRQEAIDRFNAPGAQQFCFLLSTRAGGLGINLATADTVIIYDSDWNPHNDIQAFSRAHRIGQNKKVMIYRFVTRASVEERITQVAKKKMMLTHLVVRPGLGSKTGSMSKQELDDILKFGTEELFKDEATDGGGDNKEGEDSSVIHYDDKAIERLLDRNQDETEDTELQGMNEYLSSFKVAQYVVREEEMGEEEEVEREIIKQEESVDPDYWEKLLRHHYEQQQEDLARNLGKGKRIRKQVNYNDGSQEDRDWQDDQSDNQSDYSVASEEGDEDFDERSEAPRRPSRKGLRNDKDKPLPPLLARVGGNIEVLGFNARQRKAFLNAIMRYGMPPQDAFTTQWLVRDLRGKSEKEFKAYVSLFMRHLCEPGADGAETFADGVPREGLSRQHVLTRIGVMSLIRKKVQEFEHVNGRWSMPELAEVEENKKMSQPGSPSPKTPTPSTPGDTQPNTPAPVPPAEDGIKIEENSLKEEESIEGEKEVKSTAPETAIECTQAPAPASEDEKVVVEPPEGEEKVEKAEVKERTEEPMETEPKGAADVEKVEEKSAIDLTPIVVEDKEEKKEEEEKKEVMLQNGETPKDLNDEKQKKNIKQRFMFNIADGGFTELHSLWQNEERAATVTKKTYEIWHRRHDYWLLAGIINHGYARWQDIQNDPRYAILNEPFKGEMNRGNFLEIKNKFLARRFKLLEQALVIEEQLRRAAYLNMSEDPSHPSMALNTRFAEVECLAESHQHLSKESMAGNKPANAVLHKVLKQLEELLSDMKADVTRLPATIARIPPVAVRLQMSERNILSRLANRAPEPTPQQVAQQQ
notes: human CHD4, chromatin remodeling ATPase of NuRD, UniProt Q14839, 1912 aa; Construct (pDFB6 C-Flag) is described in Hoffmeister et al., 2017; also called hCHD4 wild-type; C-Flag hCHD4; not shown: Flag, C-terminal, kept

Target: the molecule itself
Test: native gel or EMSA; 1 µg protein on a 4–16% NativePAGE gel with G-250 additive, room temperature, 150 V for 2 h, stained with Coomassie and silver

Row | Protein | stoichiometry N
1 | B1 | ≥ 3
2 | B2 | ≥ 3
